These results are taken from PMC4993509 (PLoS ONE, 2016).

As usually defined, the stoichiometry N is a count of units in the complex or per binding partner.

This data set concerns the molecule itself. Nature of the data set: SEC-MALS; Superdex 200 HR 10/30 coupled to three-angle light scattering (mini-DAWN EOS) and refractive index detector, flow 0.2 ml/min. A general note: SEC sorts molecules by how far they enter the pores of the column.

B1: C-terminal histidine-tagged SYCP1 CC (coiled-coil domain of human synaptonemal complex protein 1, residues 662-801) (domain or fragment, UniProt Q15431 662-801, looked up)
chain: DTYQKEIEDKKISEENLLEEVEKAKVIADEAVKLQKEIDKRCQHKIAEMVALMEKHKHQYDKIIEERDSELGLYKSKEQEQSSLRASLEIELSNLKAELLSVKKQLEIEREEKEKLKREAKENTATLKEKKDKKTQTFLL
notes: synaptonemal complex protein 1 (SYCP1), human, coiled-coil domain region, residues 662 (D)-801 (L); A selenomethionine-substituted form was also made and crystallised; the final model holds residues 673-767 (chain A) and 673-769 (chain B); also called SYCP CC; wildtype; source: E. coli BL21 (pET24a), purified (Ni-NTA, Superdex 200 gel filtration); not shown: His tag, C-terminal, kept
As for B1, the “stoichiometry N” value came out at 2.
